Measured values: US20230111279A1 (Takeda / Millennium, published 2023)

Tests used:
[1] = molecular target: T1, Clec12A-His protein, Clec12A (H65-A265-WT-EOm-NIgKss-6His) (human, UniProt Q5QGZ9 65-265); assay: Biacore SPR; antibody captured on anti-mouse IgG chip, soluble Clec12A-His at 100 nM in solution
T1 construct: The protein was biotinylated for the ELISA binning assay; also called soluble Clec12A-His; soluble Clec12A
T1 sequence: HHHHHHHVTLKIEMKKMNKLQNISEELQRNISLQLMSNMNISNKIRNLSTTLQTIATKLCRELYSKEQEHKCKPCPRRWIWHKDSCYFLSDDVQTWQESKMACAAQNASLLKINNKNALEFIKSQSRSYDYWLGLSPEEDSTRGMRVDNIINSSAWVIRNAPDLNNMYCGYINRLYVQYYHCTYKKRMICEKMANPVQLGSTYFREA
Protocol: (§1) Briefly, […] anti-Clec12A antibodies derived from and produced in hybridoma were tested for their binding affinity on soluble Clec12A in a Biacore SPR system. Briefly, the antibodies were immobilized on anti-mouse IgG sensor chips and bound to soluble Clec12A-His protein (Clec12A extracellular domains fused to 6×His tag (SEQ ID NO: 79)) at 100 nM in the solution phase. The resulting Biacore traces are as shown in […]

[2] = molecular target: T1, Clec12A-His protein, Clec12A …; assay: Biacore SPR; antibody captured on anti-mouse IgG chip, soluble Clec12A-His at 100 nM in solution; monovalent
Protocol: as §1

koff [1] [s⁻¹] | kon [1] [M⁻¹ s⁻¹] | Kd [2] [nM] | Binder
0.000666 | 176000 | 3.78 | anti-Clec12A antibody B (antibody, V domains shown, Hybridoma-produced IgG; also called Clone B) VH: QVQLVESGGGVVQPGRSLRLSCAASGFTFSSYGMHWVRQAPGKGLEWVAVISYDGSDKYYVDSVKGRFTISRDNSKNTLYLHMNSLRAEDTAVYYCARDKGYYFDYWGQGTLVTVSS VL: EIVMTQSPATLSLSPGERATLSCRASQSVGNRYLSWYQQKPGQAPRLLIYGASTRATGIPARFSGSGSGTDFTLTISSLQPEDFAVYYCQQDYNLPLTFGGGTKVEIK
< 1e-05 | 182000 | < 0.0549 | anti-Clec12A antibody C (antibody, V domains shown, Hybridoma-produced IgG; also called Clone C) VH: QVQLVESGGGVVQPGRSLRLSCAASGFTFSSYGMHWVRQAPGKGLEWVAVISYDGSDKYSADSVKGRFNISRDNSKNTLYLQMNSLRAEDTAVYYCARDGSRYFDYWGQGTLVTVSS VL: EIFMTQSPATLSLSPGERATLSCRASQSVHSKYLSWYQQKPGQAPSLLIYGASTRATGIPARFSGSGSGTDFTLTISSLQPEDFAVYYCQQDYNLPITFGQGTRLEIK
0.0132 | 4.62e+06 | 2.87 | anti-Clec12A antibody A (antibody, V domains shown, Described as a human anti-Clec12A antibody derived from and produced in hybridoma, captured on anti-mouse IgG sensor chips; also called Clone A) VH: QVQLQESGPGLVKPSETLSLTCTVSGGSISTYYWSWIRQPPGKGLEWIGYIYYSGSTKYNPSLKSRVTISVDTSKNLFSLKLSSVTAADTAVYYCAREDYYGSGSPFDYWGQGTLVTVSS VL: IQMTQSPSSLSASVGDRVTITCRASQGIRYDLGWYQQKPGKAPKLLIYAASSLQSGVPSRFSGSGSGTDFTLTISSLQPEDFATYYCLQDYNFPRTFGQGTKVEIK
– | – | 1.99 | anti-Clec12A antibody D (antibody, V domains shown, Hybridoma-produced IgG; also called Clone D; anti-Clec12A Clone D antibody) VH: QLQLQESGPGLVKPSETLSLTCTVSGGSISSSTYYWGWIRQPPRKGLEWIGSTHYRGSTYYNPSLKSRVTISVDTSKNQFSLKVSSVTAADTAVYYCARELTGEVFDYWGQGTLVTVSS VL: not shown
